The record followed here is patent US20220064301A1 (XILIO DEVELOPMENT, published 2022).

Assay [1] addresses T1, human CTLA4-Fc (R&D #7268-CT) (human, UniProt P16410 36-162).
T1 construct: Bought reagent coated on ELISA plates; also called human CTLA-Fc; not shown: Fc part of the bought fusion; not described
In words: huCTLA4-Fc binding ELISA (luminescence). As for the experimental part: All ELISA were performed in a manner substantially similar to the description below or generally consistent with methods known in the art. Polystyrene 96-well microplates (Fisher #07-200-591) were coated with 1 μg/mL of human CTLA4-Fc (R&D #7268-CT) per well and stored overnight at 4° C. Plates were washed with 0.05% Tween in TBS (TBS-T), blocked with 1% BSA (Sigma Aldrich #B4287-25G), and washed with TBS-T. Serial dilutions of samples containing anti-CTLA4 antibodies described below were made in assay buffer (PBS+0.05% Tween+1% BSA), added to plate, and shaken orbitally at 100 RPM at room temperature for one hour. After washing with TBS-T, anti-human Kappa light chain [clone: SB81a]-HRP (Abcam #ab79115) diluted to 1:8000 in assay buffer was applied to the wells and shaken at room temperature for one hour. Plates were washed with TBS-T, HRP substrate (Super Signal Pico Chemiluminescent Substrate, Thermo #37069) was applied to plate, and luminescence was recorded using a spectrophotometer (BioTek). Data was analyzed with GraphPad Prism.

Assay [2] concerns the target T2, FcγRIIIa on Jurkat effector cells (FcγRIIIa reporter bioassay). In words: cell-based or functional assay.
The target in assay [3] is T2, FcγRIIIa on Jurkat effector cells …. In words: cell-based or functional assay. The source holds these as a separate data set.
The target in assay [4] is T3, human CTLA4 (huCTLA4) (human, UniProt P16410 36-161, limits assumed). The assay can be described thus: SPR (Biacore), fit of the sensorgrams of FIG. 2A. The protocol: (§1) All Surface Plasmon Resonance (SPR) analysis were performed in a manner substantially similar to the description below or generally consistent with methods known in the art. SPR was performed on certain antibodies to assess binding between the antibody, or fragment thereof, and a target protein, such as human CTLA4 (huCTLA4), cynomolgus CTLA4 (cynoCTLA4), or FcγRIIIa (CD16a). […] SPR analysis was performed on a GE Biacore T200 instrument at 37° C. The antibody and isotype control (reference channel) were coupled at 100 RU immobilization level to CM5 chip (GE Healthcare). Peptides were synthesized and diluted into HBS-EP+ running buffer (GE Healthcare). The binding data were analyzed using Biacore Evaluation Software, version 3.0.
For orientation: SPR reads the build-up and loss of mass on a sensor chip optically.

The target in assay [5] is T3, human CTLA4 (huCTLA4). The assay can be described thus: SPR, Biacore T200, 37 C; reference ipilimumab. As for the experimental part: as §1
In assay [6] the target is cynomolgus CTLA4 (cynoCTLA4) (cynomolgus, UniProt G7PL88 36-161). In words: SPR, Biacore T200, 37 C. As for the experimental part:
as §1

The target of assay [7] is T3, human CTLA4 (huCTLA4). In words: SPR, Biacore T200, 37 C. The protocol:
as §1

Assay [8] addresses T2, FcγRIIIa on Jurkat effector cells …. In words: cell-based or functional assay. This is another data set of the same source.
The target of assay [9] is T4, rhCTLA4-Fc (recombinant human CTLA4-Fc) (human, UniProt P16410 36-162, limits assumed).
T4 construct: Used in SPR with the Fabs; not shown: Fc part; not described
In words: SPR, average of three channels. The protocol: as §1

The target of assay [10] is T5, cynoCTLA4-Fc (cynomolgus, UniProt G7PL88 36-161).
T5 construct: also called cynomolgus CTLA4-Fc
In words: SPR, average of three channels. The protocol: as §1

Assay [11] concerns the target T4, rhCTLA4-Fc (recombinant human CTLA4-Fc). The assay can be described thus: SPR, channel Ch3. As for the experimental part:
as §1

The target of assay [12] is T5, cynoCTLA4-Fc. The assay can be described thus: SPR, channel Ch3. The protocol: as §1
The target in assay [13] is T4, rhCTLA4-Fc (recombinant human CTLA4-Fc). The assay can be described thus: SPR, channel Ch1. As for the experimental part: as §1
Assay [14] deals with T5, cynoCTLA4-Fc. In words: SPR, channel Ch1. The protocol:
as §1

The target of assay [15] is T4, rhCTLA4-Fc (recombinant human CTLA4-Fc). The assay can be described thus: SPR, channel Ch2. The protocol: as §1
Assay [16] concerns the target T5, cynoCTLA4-Fc. The assay can be described thus: SPR, channel Ch2. As for the experimental part:
as §1

Where two headings read alike, the source gives them in different places.

T2 sequence (P08637 whole entry): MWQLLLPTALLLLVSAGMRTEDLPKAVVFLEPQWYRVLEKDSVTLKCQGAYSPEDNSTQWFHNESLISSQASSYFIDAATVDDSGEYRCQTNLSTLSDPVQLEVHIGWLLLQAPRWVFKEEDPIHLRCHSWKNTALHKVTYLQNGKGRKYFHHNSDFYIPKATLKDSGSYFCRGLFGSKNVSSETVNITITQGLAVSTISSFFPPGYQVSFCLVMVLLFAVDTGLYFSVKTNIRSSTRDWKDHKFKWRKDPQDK
T3 sequence (P16410 36-161 limits assumed): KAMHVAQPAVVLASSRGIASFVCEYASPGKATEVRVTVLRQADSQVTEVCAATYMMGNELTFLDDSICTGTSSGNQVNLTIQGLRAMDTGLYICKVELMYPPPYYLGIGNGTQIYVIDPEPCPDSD
T4 sequence (P16410 36-162 limits assumed): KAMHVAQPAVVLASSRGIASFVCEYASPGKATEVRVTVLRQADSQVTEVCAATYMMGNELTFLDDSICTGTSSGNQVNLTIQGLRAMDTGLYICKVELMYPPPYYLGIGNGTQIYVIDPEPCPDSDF
T1 sequence (P16410 36-162 limits assumed): as above
T5 sequence (G7PL88 entry or part of it limits assumed): as the sequence (P16410 36-161 limits assumed) above, with S14N, I18T, L106M counted along it
Chain of cynomolgus CTLA4 (cynoCTLA4) (G7PL88 entry or part of it limits assumed): as the sequence (P16410 36-161 limits assumed) above, with S14N, I18T, L106M counted along it

B1: Antibody 1-1 (version of humanized anti-CTLA4 Antibody 1 having a wild-type Fc region) (antibody, V domains shown)
VH: QVQLQESGPGLVKPSETLSLTCSVTYHTITSGYDWTWIRKPPGKGMEWIGYISYSGNTNYNPSLKSRVTISRDTSKNQFFLKLSSVTAADTAVYYCASMMVPHYYVMDAWGQGTLVTVSSA
VL: DIVMTQTPLSLSVTPGQPASISCRSSQSLLNSDGNTYLYWYLQKPGQSPQLLIYLVSKLGSGVPNRFSGSGSGTDFTLKISRVEAEDVGVYYCVQGTHDPWTFGGGTKVEIKR
notes: VL 25 / VH 26 are inferred from the parallel a)/b) order of the embodiments and because 30/31 go with the CDRs of Antibody 2; Full antibody with wild-type Fc
In assay [1], B1 gave an EC50 of 0.41 nM. In addition, the “EC50 of reporter activation (RLU), ADCC FcγRIIIa reporter bioassay with CTLA4 target cells” value (“EC50 of reporter activation (RLU)” below) in assay [2] is 1.05 ng/mL.

B2: Antibody 1-aFuc (afucosylated version of Antibody 1) (antibody, V domains shown)
VH: B1 VH
VL: B1 VL
modifications: afucosylated Fc glycan
notes: Variable domains inferred as for Antibody 1-1; Afucosylated full antibody
On to B2, for which the “EC50 of reporter activation (RLU)” value in assay [3] and in assay [2] was 0.163 ng/mL each time. Further, a half-maximal response in assay [1] (EC50) required 0.41 nM.

B3: Antibody 1-2 (version of Antibody 1 having a S239D mutation and an I332E mutation in the Fc region) (antibody, V domains shown)
VH: B1 VH
VL: B1 VL
notes: Variable domains inferred as for Antibody 1-1; Full antibody with S239D and I332E in the Fc region
B3 had an EC50 in [1] of 0.56 nM. For the same molecule, the “EC50 of reporter activation (RLU)” value in [2] amounted to 0.327 ng/mL.

B4: Antibody 2-1 (version of humanized anti-CTLA4 Antibody 2 having a wild-type Fc region) (antibody)
VH: not shown
VL: EIVLTQSPDFQSVTPKEKVTITCSANSALSYMYWYQQKPDQSPKLWVHGTSNLASGVPSRFSGSGSGTDFTLTINSLEAEDAATYYCHHWSNTQWTFGGGTKVEIKRTVAAPSVFIFPPSDEQLKSGTASVVCLLNNFYPREAKVQWKVDNALQSGNSQESVTEQDSKDSTYSLSSTLTLSKADYEKHKVYACEVTHQGLSSPVTKSFNRGEC
notes: Full antibody with wild-type Fc; copies: 2 + 2
B4: the EC50 in [1] amounted to 0.33 nM.

B5: Antibody 2-6 (a version of Antibody 2 having a S239D mutation, an I332E mutation in the Fc region) (antibody)
VH: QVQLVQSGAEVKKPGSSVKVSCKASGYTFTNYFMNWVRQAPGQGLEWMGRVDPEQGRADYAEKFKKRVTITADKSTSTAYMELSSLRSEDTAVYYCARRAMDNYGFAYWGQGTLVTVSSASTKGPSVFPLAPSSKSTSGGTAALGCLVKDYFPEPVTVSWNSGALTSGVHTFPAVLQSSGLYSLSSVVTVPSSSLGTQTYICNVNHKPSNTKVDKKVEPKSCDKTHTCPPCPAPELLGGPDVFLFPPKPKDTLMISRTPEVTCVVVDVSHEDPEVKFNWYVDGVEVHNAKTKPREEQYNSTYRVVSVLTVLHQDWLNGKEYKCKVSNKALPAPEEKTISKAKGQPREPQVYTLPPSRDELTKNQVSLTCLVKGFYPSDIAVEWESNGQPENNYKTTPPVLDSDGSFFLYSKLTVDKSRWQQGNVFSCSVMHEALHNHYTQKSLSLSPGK
VL: B4 VL
notes: copies: 2 + 2
In the case of B5, the dissociation rate constant (koff) with human CTLA4 (huCTLA4) [4] was 3.33e-05 s⁻¹. The molecule also registered a kon in the assay with human CTLA4 (huCTLA4) [4] of 366000 M⁻¹ s⁻¹. Besides, in the assay with human CTLA4 (huCTLA4) [5], the “fold greater binding affinity than ipilimumab (by KD)” value is about 18 fold. Moreover, the results for the Kd (in assay [6]; in the assay with human CTLA4 (huCTLA4) [7]) were 0.131 nM and 0.091 nM, respectively.

B6: Antibody 2-aFuc (afucosylated version of Antibody 2) (antibody, V domains shown)
VH: QVQLVQSGAEVKKPGSSVKVSCKASGYTFTNYFMNWVRQAPGQGLEWMGRVDPEQGRADYAEKFKKRVTITADKSTSTAYMELSSLRSEDTAVYYCARRAMDNYGFAYWGQGTLVTVSSA
VL: EIVLTQSPDFQSVTPKEKVTITCSANSALSYMYWYQQKPDQSPKLWVHGTSNLASGVPSRFSGSGSGTDFTLTINSLEAEDAATYYCHHWSNTQWTFGGGTKVEIKR
modifications: afucosylated Fc glycan
notes: Afucosylated full antibody
With B6, the “EC50 of reporter activation (RLU)” value in [3] and in assay [8] was 0.0177 ng/mL throughout. In assay [1], this molecule gave an EC50 of 0.36 nM.

B7: Antibody 2-Fab (a Fab of Antibody 2) (Fab, V domains shown)
VH: QVQLVQSGAEVKKPGSSVKVSCKASGYTFTNYFMNWVRQAPGQGLEWMGRVDPEQGRADYAEKFKKRVTITADKSTSTAYMELSSLRSEDTAVYYCARRAMDNYGFAYWGQGTLVTVSS
VL: B6 VL
notes: Fab
B7: the Kd was 0.00386 nM in assay [9]; 0.779 nM with cynoCTLA4-Fc [10]; 0.00555 nM in assay [11]; 0.92 nM with cynoCTLA4-Fc [12]; 0.00453 nM in assay [13]; 0.623 nM with cynoCTLA4-Fc [14]. Further, the figures for the Kd (in assay [15]; with cynoCTLA4-Fc [16]) were 0.00151 nM and 0.794 nM, respectively. Moreover, the koff stood at 1.84e-06 s⁻¹ in [11]; 0.000234 s⁻¹ with cynoCTLA4-Fc [12]; 1.63e-06 s⁻¹ in assay [13]; 0.000226 s⁻¹ in the assay with cynoCTLA4-Fc [14]; 5.19e-07 s⁻¹ in assay [15]; 0.000229 s⁻¹ with cynoCTLA4-Fc [16]. Moreover, the kon is 331000 M⁻¹ s⁻¹ in assay [11]; 254000 M⁻¹ s⁻¹ with cynoCTLA4-Fc [12]; 361000 M⁻¹ s⁻¹ in assay [13]; 363000 M⁻¹ s⁻¹ with cynoCTLA4-Fc [14]; 345000 M⁻¹ s⁻¹ in [15]; 289000 M⁻¹ s⁻¹ in the assay with cynoCTLA4-Fc [16].

Usually EC50 stands for the concentration giving half of the maximal effect. Low readings indicate higher potency in that assay, high ones lower potency in that assay. The term koff denotes the rate constant with which the complex falls apart. For orientation: kon means the rate constant with which the complex forms. As a reminder, the Kd is a measure of binding affinity in units of concentration.
